B1: chimeric antibody clone 24-2 (rab600_24_2) (antibody, V domains shown)
VH: QEQLEESGGGLVQPEGSLALTCKASGFSFSVSYWICWVRQAPGKGLEWIACTDGGDGSSYYASWVNGRFTISKISSTTVTLQMTSLTAADTAIYFCARDRSDVFNLWGPGTLVTVSS
VL: DIVMTQTPASVEAAVGGTVTIKCQAGQSIDSNLAWYQQKPGQPPKLLIYRASTLASGVPSRFKGSGSGTEFALTISDLECADAATYFCQSFYVTISAMVDYPFGGGTEVVVK
B2: chimeric antibody clone 24-62 (rab600_24_62) (antibody, V domains shown)
VH: QSLEESGGDLVVPGTSLTLTCTASGFDLSSFYYMCWVRQAPGKGLEWIACIYAVSSGSTYYASWAKGRFTVSRTSSTTATLQMTSLTAADTATYFCARHQSYETYGYVGVVYATYFSLWGPGTLVTVSS
VL: ALVMTQTPASVSAAVGGTVTINCQASEDIDSYLAWYQQKPGQPPKLLIYYASYLTSGVPSRFKGSGSGTEYTLTISGVQCDDAATYYCQSAFYSNNTETAFGGGTEVVVK
B3: chimeric antibody clone 24-97 (rab600_24_97) (antibody, V domains shown)
VH: QSLEESGGDLVKPGASLTLTCKASGFSFSSGHDMCWVRQAPGKGLEWIACIYPDYDITDYASWVNGRFTISLDNAQNTVFLQMTSLTAADTATYFCARSGYGGFRYGFNLWGPGTLVTVSS
VL: DIVMTQTPASVEVAVGGTVTIKCQASEDIENYLAWYQQKPGQPPKLLIYDASDLTSGVPSRFKGSGSGTQFTLTISDLECADAATYYCQSVYYTSSDNYNNAFGGGTEVVVK
B4: chimeric antibody clone 25-10 (rab600_25_10) (antibody, V domains shown)
VH: QSVEESGGRLVAPGTPLTLTCTVSGIDLSRYAMAWVRQAPGKGLEYIGYIDTGDSTYYATWAKGRFTISRTSTTVHLKIASPTTEDTATYFCTNVGVRMYLWGPGTLVTVSS
VL: DVVMTQTPASVEAAVGGTVTIKCQASQSISSYLSWYQQKPGQPPKLLIYRASTLESGVPSRFKGSGSGTEFTLTISDLECADAATYYCQCGYYGGSYIGAFGGGTEVVVK
B5: chimeric antibody clone 25-103 (rab600_25_103) (antibody, V domains shown)
VH: QEQLKESGGGLVTPGTPLTLTCTVSGIDLSSYAMGWVRQAPGKGLEYIGFIDTGGSTYYANWAKGRFTISRTSTTVDLKIASPTTEDAATYFCANVGARMYLWGPGTLVTVSS
VL: B4 VL with K22N, S31N, Y32L, S34A, G91S
B6: chimeric antibody clone 24-25 (rab600_24_25) (antibody, V domains shown)
VH: QSLEESGGGLVKPEGSLTLTCAVSGFDLNSYYWICWARQAPGKGLEWIACIDGGSTGSAYYASWAKGRLSISKASSTTVTLQMTSLTAADTATYFCARVQSYVGYANYGYPNYFNLWGPGTLVTVSS
VL: IEMTQTPSSVSAAVGGTVTINCQSSEDIDSYLAWYQQKPGQPPKLLIYHASYLTSGVPSRFSGSRSGTEFTLTISDLECDDAATYYCQSAYYSSSADNTFGGGTEVVVK
B7: humanized antibody clone 37 (taken as h600_25_37) (antibody, V domains shown)
VH: EVQLVESGGGLVQPGGSLRLSCAASGIDLSNYAMGWVRQAPGKGLEWVGSRRTDGITYYANWAEGRFTISRDNSKNTLYLQMNSLRAEDTAVYYCGRDVGGEGGWYFNLWGQGTLVTVSS
VL: DIQMTQSPSTLSASVGDRVTITCQASQSINIYLAWYQQKPGKAPKLLIYDASKLASGVPSRFSGSGSGTEFTLTISSLQPDDFATYYCQQGINNIGFGGGTKVEIK
B8: humanized antibody clone 25-10 (h600_24_10) (antibody, V domains shown)
VH: EVQLLESGGGLVQPGGSLRLSCAASGIDLSRYAMAWVRQAPGKGLEWVGYIDTGDSTYYATWAKGRFTISRDNSKNTLYLQMNSLRAEDTAVYYCTNVGVRMYLWGQGTLVTVSS
VL: DIQMTQSPSSLSASVGDRVTITCQASQSISSYLSWYQQKPGKAPKLLIYRASTLESGVPSRFSGSGSGTDFTLTISSLQPEDFATYYCQCGYYGGSYIGAFGGGTKVEIK
notes: its CDRs are those of rab600_25_10
B9: humanized antibody clone 25-103 (h600_24_103) (antibody, V domains shown)
VH: B8 VH with L5V, R31S, A35G, Y50F, D55G, T61N, T96A, V100A
VL: B8 VL with S31N, Y32L, S34A, G91S
notes: its CDRs are those of rab600_25_103
B10: humanized antibody h600_23_24_H (antibody, V domains shown)
VH: EVQLVESGGGLVQPGGSLRLSCAASGFSLNSYGVNWVRQAPGKGLEWVGGINTGGSTYYANWAKGRFTISRDNSKNTLYLQMNSLRAEDTAVYYCARTSGNNVYNYFTLWGQGTLVTVSS
VL: DIQMTQSPSSLSASVGDRVTITCQASQSIPSLLAWYQQKPGKAPKLLIYAPSTLASGVPSRFSGSGSGTDFTLTISSLQPEDFATYYCQSYYYGDNTYNNIFGGGTKVEIK
B11: humanized antibody clone 4 (taken as h600_23_4) (antibody, V domains shown)
VH: EVQLVESGGGLVQPGGSLRLSCAASGIDLSSYTMGWVRQAPGKGLEWVGFISSSGHTYYANWAKGRFTISRDNSKNTLYLQMNSLRAEDTAVYYCAREGGYGGYDYTGIFNLWGQGTLVTVSS
VL: DIQMTQSPSTLSASVGDRVTITCQATESISSWLAWYQQKPGKAPKLLIYGASTLESGVPSRFSGSGSGTEFTLTISSLQPDDFATYYCQQGYIYTNVDNTFGGGTKVEIK

Residue numbers refer to the chain shown, from its start.

The target in the first experiment is T1, TNFR2 CRD4 peptide (peptide 5; aa 146-174 of mature TNFR2) (human).
T1 construct: Range counted on mature TNFR2; also called peptide five; bin 5
T1 peptide: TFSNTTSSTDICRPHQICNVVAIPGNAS
Nature of the experiment: peptide-binding ELISA (potential peptide bin).
Regarding B1, the binding result is “binds”.
The same measure, in the same setting: in the case of B2 it was “binds”; in that of B3, “binds”.
Still for that read-out and setting: under B4 stands “binds”; under B5, “binds”.
Same read-out and setting: in the case of B6 it was “binds”.

The target in another experiment is T2, human TNFR2 expressed on cells (human, UniProt P20333 23-461).
T2 construct: whole, on cells; also called hTNFR2 (cell); CHO-TNFR2
T2 sequence (looked up): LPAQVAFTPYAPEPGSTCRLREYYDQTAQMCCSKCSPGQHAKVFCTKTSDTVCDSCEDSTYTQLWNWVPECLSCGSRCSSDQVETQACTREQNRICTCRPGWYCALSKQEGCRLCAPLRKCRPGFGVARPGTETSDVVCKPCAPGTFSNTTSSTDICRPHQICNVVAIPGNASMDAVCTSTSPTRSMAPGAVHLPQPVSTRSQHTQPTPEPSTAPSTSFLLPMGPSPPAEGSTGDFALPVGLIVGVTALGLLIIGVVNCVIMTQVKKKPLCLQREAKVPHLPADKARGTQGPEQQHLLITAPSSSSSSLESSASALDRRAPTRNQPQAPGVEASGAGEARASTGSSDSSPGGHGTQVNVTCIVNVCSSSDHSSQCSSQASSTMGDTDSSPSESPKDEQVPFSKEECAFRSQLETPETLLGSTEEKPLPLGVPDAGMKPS
Kind of experiment: flow cytometry, cell-expressed human TNFR2.
Molecule B7 returned an EC50 of 109 nM.
Still for that read-out and setting: under B8 stands 1.38 nM; under B9, 0.57 nM.
Same read-out and setting: under B10 stands 1.99 nM; under B11, 1.13 nM.

The target of the next experiment is T2, human TNFR2 expressed on cells. Kind of experiment: cell binding on TNFR2-overexpressing (OE) cells.
In turn, B8 showed a Kd of 1.05 nM.
Still for that read-out and setting: in the case of B9 it was 0.468 nM; in that of B10, 1.5 nM.

Another experiment deals with T3, cynomolgus TNFR2-His tagged protein (cynomolgus, UniProt A0A2K5VET2 132-366).
T3 construct: also called Cyno TNFR2; cynomolgus TNFR2 protein; not shown: His tag
T3 sequence: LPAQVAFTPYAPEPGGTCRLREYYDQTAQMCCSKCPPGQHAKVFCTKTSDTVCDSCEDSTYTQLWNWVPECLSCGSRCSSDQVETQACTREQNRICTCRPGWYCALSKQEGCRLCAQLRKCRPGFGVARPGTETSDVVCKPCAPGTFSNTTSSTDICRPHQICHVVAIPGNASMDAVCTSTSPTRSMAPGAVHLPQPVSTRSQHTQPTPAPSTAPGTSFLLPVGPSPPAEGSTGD
Kind of experiment: ELISA on coated cynomolgus TNFR2-His. The protocol: (§1) In FIGS. 3A-3B, human (3A) or cynomolgus (3B) TNFR2-His tagged protein was coated on 96-well ELISA plates at 1 μg/mL and incubated overnight at 4° C. Plates were washed and blocked using 1% BSA. Antibodies were added for 1 hour at room temperature (RT), washed, and detected using anti-Human HRP. Assay was developed using TMB substrate for 3-5 minutes. In FIG. 3C, FACS binding was performed on CHO cells that were engineered to express human TNFR2. Briefly, antibodies were incubated with 200,000 cells in MACS buffer for 1 hour followed by wash and detection using anti-human IgG BV421 for 20 minutes. Samples were analyzed using Cytoflex or MACSQuant flow cytometers. In FIG. 3D, ligand blocking ELISA was performed by coating plates with 1 ug/mL TNFR-Fc overnight at 4° C. Plates were washed, blocked and antibodies were incubated for 1 hr at RT. […] Assay was developed using TMB substrate for 5-7 minutes.
Molecule B1 showed a concentration giving a half-maximal response (EC50) of 0.0742 nM.
In the case of B2, the concentration giving a half-maximal response (EC50) stood at 0.0958 nM. The EC50 values of the last two molecules are within 1.5-fold of each other.
B3 gave a half-maximal effective concentration (EC50) of 0.086 nM.
Still for that read-out and setting: in the case of B4 it was 0.0235 nM.
On the same count and under the same terms, in the case of B5 it was 0.000348 nM; in that of B6, 0.189 nM.

Another experiment addresses T3, cynomolgus TNFR2-His tagged protein. Kind of experiment: ELISA, cynomolgus TNFR2.
B7 came in with an EC50 of 0.056 nM.
In turn, B8 registered an EC50 of 0.113 nM.
Same read-out and setting: in the case of B9 it was 0.107 nM; in that of B10, 0.091 nM.
In the case of B11, the EC50 stood at 0.34 nM.

For a further experiment, the target named is T4, soluble mouse TNFR2 (mouse, UniProt P25119 23-258, limits assumed).
T4 sequence (looked up): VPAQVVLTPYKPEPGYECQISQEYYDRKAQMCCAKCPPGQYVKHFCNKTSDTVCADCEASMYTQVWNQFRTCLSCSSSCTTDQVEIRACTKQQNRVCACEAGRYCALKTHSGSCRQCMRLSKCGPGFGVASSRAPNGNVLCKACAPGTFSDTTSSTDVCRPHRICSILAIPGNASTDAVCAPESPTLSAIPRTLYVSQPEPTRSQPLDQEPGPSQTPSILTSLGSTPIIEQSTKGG
Nature of the experiment: binding screen on soluble mouse TNFR2 (mouse cross-reactivity).
Turning to B1, the binding result is on record as “no binding”.
Same read-out and setting: in the case of B2 it was “binds”.
Still for that read-out and setting: under B3 stands “binds”; under B4, “binds”; under B5, “binds”.
Still for that read-out and setting: in the case of B6 it was “binds”.

A further experiment concerns the target T5, human TNFR2-His tagged protein (soluble) (human, UniProt P20333 23-257).
T5 construct: also called hTNFR2 (soluble); soluble TNFR2-His; not shown: His tag
T5 sequence (looked up): T3 sequence with G16S, P36S, Q117P, H164N, A210E, G216S, V223M
Kind of experiment: ELISA, soluble human TNFR2. In general terms: ELISA stands for enzyme-linked immunosorbent assay.
Take B7: the EC50 worked out at 0.072 nM. That is a picomolar value.
Same read-out and setting: in the case of B8 it was 0.053 nM; in that of B9, 0.097 nM; in that of B10, 0.142 nM.
Molecule B11 displayed an EC50 of 0.111 nM.

In the next experiment the target is T5, human TNFR2-His tagged protein (soluble). Nature of the experiment: ELISA on coated human TNFR2-His. The protocol:
as §1
In turn, B1 registered an EC50 of 0.0981 nM.
Same read-out and setting: under B2 stands 0.137 nM.
Still for that read-out and setting: in the case of B3 it was 0.0632 nM; in that of B4, 0.0862 nM; in that of B5, 0.0443 nM.
B6: the EC50 came out at 0.21 nM.

A further experiment deals with T2, human TNFR2 expressed on cells. Nature of the experiment: flow cytometry on CHO cells expressing human TNFR2. The method, then:
as §1
For the molecule B4, the EC50 is 0.513 nM.
Same read-out and setting: in the case of B5 it was 0.946 nM.

A further experiment addresses T6, TNFR-Fc (UniProt P20333 23-257, limits assumed).
T6 construct: Printed only as TNFR-Fc; not shown: Fc part
T6 sequence (looked up): T3 sequence with G16S, P36S, Q117P, H164N, A210E, G216S, V223M
Nature of the experiment: TNF-α blocking ELISA (soluble).
Take B11: inhibition was half-maximal at 3.57 nM (IC50).

One may read the EC50 as the concentration needed to bring the measured effect to its halfway point. Low values mean a more potent agent, high ones a less potent agent. Usually Kd stands for the constant that tells how readily two partners part at equilibrium. In general, IC50 refers to the concentration that inhibits the measured activity by half. A low value points to greater potency in that assay.
